Measurements: patent publication US20250170129A1, “SENOTHERAPEUTIC AGENTS AND ALPHA-KLOTHO POLYPEPTIDES” (Mayo Foundation for Medical Education and Researc, priority 2022, published 2025)

Legend:
α-Klotho [1] = test: Senolytics on non-senescent human astrocytes, α-Klotho Western blot and qPCR; assay type: cell-based; conditions: Dasatinib (200 nM) plus Quercetin (10 μM) or Fisetin (10 μM), 48 hours
Method: FIGS. 11A-11C. […] Non-senescent human astrocytes were treated with vehicle, Dasatinib (200 nM) plus Quercetin (10 μM), or Fisetin (10 μM) for 48 hours. FIG. 11A) α-Klotho was assayed by Western blotting with GAPDH as the loading control. FIG. 11B) α-Klotho mRNA was assayed by qPCR. FIG. 11C) Non-senescent human adipose progenitor cells were treated with Dasatinib (500 nM) plus Quercetin ([…]) or vehicle for 48 hours. α-Klotho mRNA was assayed by qPCR.

α-Klotho [2] = test: Senolytics in naturally-aged mice, α-Klotho in urine, kidney, brain; assay type: in vivo, mouse; conditions: naturally-aged male mice 28-29-month-old, oral, vs vehicle (FIG. 4A)
Method: Wild-type C57BL/6 mice were randomly assigned to D+Q, Fisetin (F), or vehicle treatments. Treatments were started at age 26-27 months for old animals, and for DIO mice after 7-8 months of high fat-feeding beginning at 4 months of age. Mice were treated every 20 days with D+Q, F, or vehicle by oral gavage for 3 consecutive days in each of 3 cycles over 2 months (9 doses in total).

α-Klotho [3] = test: Senolytics in mice transplanted with senescent preadipocytes, urinary α-Klotho; assay type: in vivo, mouse; conditions: young mice transplanted i.p. with senescent cells, treated after 3 months (FIG. 4C)
Method: FIGS. 4A-4D. Senolytics increase urinary and kidney α-Klotho in old or obese mice. FIG. 4A) Naturally-aged male mice (28-29-month-old, n=10 in each group) were treated with vehicle, Dasatinib plus Quercetin (D+Q), or Fisetin. Urinary α-Klotho was measured by ELISA and expressed as a function of creatinine. One-way ANOVA: F=6.39; p<0.0^5, R^2=0.30; *p=0.02, **p<0.01. FIG. 4B) DIO mice (male, 10-month-old, n=8) were treated with vehicle or D+Q and urinary α-Klotho was assayed by ELISA and expressed as a function of creatinine. Unpaired T test; **p<0.01. FIG. 4C) Six-month-old male mice (n=6 in each group) were transplanted i.p. with senescent preadipocytes. After 3 months, they were treated with vehicle, D+Q, or Fisetin. Urinary α-Klotho was assayed by ELISA and expressed as a function of creatinine. One-way ANOVA and post hoc Tukey's tests: Kruskal-Wallis statistic=10.19; *p=0.02, **p<0.01. FIG. 4D) Kidney α-Klotho protein was also assayed in the same transplanted mice by Western blotting. One-way ANOVA: F=24.24; p<0.001, R^2=0.83; ***p<0.001. […]
α-Klotho was assayed by ELISA in 1:100 diluted mouse urine (IBL America, #27601). […] Urine α-Klotho measurements are expressed as a function of urine volume, creatinine (R&D Systems, #KGE005), and/or cystatin C (R&D Systems, #MSCTC0).

α-Klotho [4] = test: Recombinant SASP factor treatment of non-senescent HBAs, α-Klotho qPCR; assay type: cell-based, human; conditions: non-senescent HBAs treated with recombinant protein (FIG. 1F)
Text: (§1) FIGS. 1A-1F. Senescent cell conditioned medium decreases α-Klotho; blocking particular SASP factors with neutralizing antibodies partially restores α-Klotho. FIGS. 1A-1C) Conditioned media (CM) collected from senescent or non-senescent (FIG. 1A) human primary kidney endothelial cells (HKEs; one-way ANOVA: F=19.10, p<0.0001, R^2=0.89; n=3; ****p<0.0001); (FIG. 1B) human umbilical vein endothelial cells (HUVECs; one-way ANOVA: F=3.02, p=0.02, R^2=0.58, n=3; *p=0.02, **p=0.01); or (FIG. 1C) human brain astrocytes (HBAs; one-way ANOVA: F=7.93, p=0.02, R^2=0.66; n=5; ***p<0.001, *p=0.03) were applied to non-senescent HKEs, HUVECs, or HBAs, respectively, with or without antibodies against PAI-1, CXCL1, IL-6, activin A, TNF-α, IL-1α, IL-1β, or IL-18 for 48 hours. α-Klotho mRNA was assayed by qPCR. Means SEM. FIGS. 1D-1F) Primary HKEs (FIG. 1D; n=4), HUVECs (FIG. 1E; n=4), or HBAs (FIG. 1F; n=4) were treated with recombinant activin A or IL-1α. α-Klotho was assayed by qPCR 24 hours after treatments. Means±SEM; unpaired T-tests; ***p<0.001, ****p<0.0001. […]
(§2) Each cDNA sample was generated by reverse transcription using 1 μg RNA following the manufacturer's protocol (Thermo Fisher Scientific). […] Data were analysed by the ΔΔCt method.

α-Klotho [5] = test: Recombinant SASP factor treatment of non-senescent HUVECs, α-Klotho qPCR; assay type: cell-based, human; conditions: non-senescent HUVECs treated with recombinant protein (FIG. 1E)
Text: as §1, §2

α-Klotho [6] = test: Recombinant SASP factor treatment of non-senescent HKEs, α-Klotho qPCR; assay type: cell-based, human; conditions: non-senescent HKEs treated with recombinant protein (FIG. 1D)
Text: as §1, §2

Molecule	α-Klotho (Western blotting, mRNA qPCR) (α-Klotho [1])	urine α-Klotho (ELISA, function of creatinine) (α-Klotho [2])	urinary α-Klotho (ELISA, function of creatinine) (α-Klotho [3])	expression of α-Klotho (qPCR) (α-Klotho [4])	expression of α-Klotho (qPCR) (α-Klotho [5])	expression of α-Klotho (qPCR) (α-Klotho [6])
O=c1c(O)c(-c2ccc(O)c(O)c2)oc2cc(O)ccc12 [F, Fisetin]	did not increase	increased	increased			
IL-1α: recombinant human IL-1α protein (R&D Systems, #00-LA-010) (protein, UniProt P01583 113-271, looked up) Interleukin-1 alpha: SAPFSFLSNVKYNFMRIIKYEFILNDALNQSIIRANDQYLTAAALHNLDEAVKFDMGAYKSSKDDAKITVILRISKTQLYVTAQDEDQPVLLKEMPEIPKTITGSETNLLFFWETHGTKNYFTSVAHPNLFIATKQDYWVCLAGGPPSITDFQILENQA				decreased expression of α-Klotho	decreased expression of α-Klotho	decreased expression of α-Klotho
recombinant activin A: recombinant human activin A (R&D Systems, #338-AC) (protein, UniProt P08476 311-426, looked up) Inhibin beta A chain: GLECDGKVNICCKKQFFVSFKDIGWNDWIIAPSGYHANYCEGECPSHIAGTSGSSLSFHSTVINHYRMRGHSPFANLKSCCVPTKLRPMSMLYYDDGQNIIKKDIQNMIVEECGCS				decreased expression of α-Klotho	decreased expression of α-Klotho	decreased expression of α-Klotho
